# Reference: patent US20230287598A1
# Residue numbers refer to the chain shown, from its start. Names may count otherwise.
# B1: VH4-34+CDR3-IL8_CDR1-Cow_CDR2-E50S_Q5RQ6E / VL1-51 S2A, T5N, P8S, A12G, A13S, P14L, K46R, L47T, D51G, N52D, N53T IgG (antibody)
# VH: QVQLREWGAGLLKPSETLSLTCTASGFSLSDKAVGWIRQPPGKGLEWIGSINHSGSTNYNPSLKSRVTISVDTSKNQFSLKLSSVTAADTAVYYCTSVHQETKKYQSPRSAKELRCQCIKTYSKPFHPKFIKELRVIESGPHCANTEIIVKLSDGRELCLDPKENWVQRVVEKFLKRAENSGSGSYTYNYEWHVDVWGQGLLVTVSS
# light: QAVLNQPSSVSGSLGQKVTISCSGSSSNIGNNYVSWYQQLPGTAPRTLIYGDTKRPSGIPDRFSGSKSGTSATLGITGLQTGDEADYYCASAEDSSSNAVFGSGTTLTVLGQPKAAPSVTLFPPSSEELQANKATLVCLISDFYPGAVTVAWKADSSPVKAGVETTTPSKQSNNKYAASSYLSLTPEQWKSHRSYSCQVTHEGSTVEKTVAPTECS
# B2: VH4-34+CDR3-IL8_CDR2 E50S / VL1-51 S2A, T5N, P8S, A12G, A13S, P14L, D51G, N52D, N53T IgG (antibody)
# VH: QVQLQQWGAGLLKPSETLSLTCAVYGGSFSGYYWSWIRQPPGKGLEWIGSINHSGSTNYNPSLKSRVTISVDTSKNQFSLKLSSVTAADTAVYYCTSVHQETKKYQSPRSAKELRCQCIKTYSKPFHPKFIKELRVIESGPHCANTEIIVKLSDGRELCLDPKENWVQRVVEKFLKRAENSGSGSYTYNYEWHVDVWGQGLLVTVSSAS
# light: B1 light with R46K, T47L
# B3: VH4-34+CDR3-IL8_CDR1 G31D,Y32K / V1-47 IgG (antibody, part only; not given: V1-47 light chain, part only)
# VH: B2 VH with G31D, Y32K, S50E
# B4: VH4-34+CDR3-IL8_CDR2 Cow / V1-47 IgG (antibody, part only; not given: V1-47 light chain, part only)
# VH: B2 VH with I48L, N52D, H53T, S54G, S56N, N58G
# B5: VH4-34+CDR3-IL8 / V1-51 IgG (antibody, part only; not given: V1-51 light chain, part only)
# VH: B2 VH with S50E
# B6: VH4-34+CDR3-IL8_CDR1 Cow / V1-51 IgG (antibody, part only)
# heavy: QVQLQQWGAGLLKPSETLSLTCTASGFSLSDKAVGWIRQPPGKGLEWIGEINHSGSTNYNPSLKSRVTISVDTSKNQFSLKLSSVTAADTAVYYCTSVHQETKKYQSPRSAKELRCQCIKTYSKPFHPKFIKELRVIESGPHCANTEIIVKLSDGRELCLDPKENWVQRVVEKFLKRAENSGSGSYTYNYEWHVDVWGQGLLVTVSSAS
# light: QSVLTQPPSVSAAPGQKVTISCSGSSSNIGNNYVSWYQQLPGTAPKLLIYDNNKRPSGIPDRFSGSKSGTSATLGITGLQTGDEADYYCASAEDSSSNAVFGSGTTLTVLGQPKAAPSVTLFPPSSEELQANKATLVCLISDFYPGAVTVAWKADSSPVKAGVETTTPSKQSNNKYAASSYLSLTPEQWKSHRSYSCQVTHEGSTVEKTVAPTECS
# B7: VH4-34+CDR3-IL8_CDR2 E50S / V1-47 IgG (antibody, part only; not given: V1-47 light chain, part only)
# VH: B2 VH
# B8: VH4-34+CDR3-IL8 / V1-47 IgG (antibody, part only; not given: V1-47 light chain, part only)
# VH: B2 VH with S50E
# B9: VH4-34+CDR3-IL8_CDR1 Cow_CDR2 E50S / V1-47 IgG (antibody, part only; not given: V1-47 light chain, part only)
# VH: B6 heavy with E50S
# B10: VH4-34+CDR3-IL8_CDR1 G31D,Y32K_CDR2 E50S / V1-47 IgG (antibody, part only; not given: V1-47 light chain, part only)
# VH: B2 VH with G31D, Y32K
# B11: VH4-34+CDR3-IL8_CDR1 Cow_CDR2 E50S / V1-51 IgG (antibody, part only; not given: V1-51 light chain, part only)
# VH: B6 heavy with E50S
# B12: VH4-34+CDR3-IL8_CDR1 Cow / V1-47 IgG (antibody, part only; not given: V1-47 light chain, part only)
# VH: B6 heavy
# B13: VH4-34+CDR3-IL8_CDR2 E50S / V1-51 IgG (antibody, part only; not given: V1-51 light chain, part only)
# VH: B2 VH
# B14: VH4-34+CDR3-IL8_CDR1 G31D,Y32K_CDR2 E50S / V1-51 IgG (antibody, part only; not given: V1-51 light chain, part only)
# VH: B2 VH with G31D, Y32K
# B15: VH4-34+CDR3-IL8_CDR2 Cow / V1-51 IgG (antibody, part only; not given: V1-51 light chain, part only)
# VH: B2 VH with I48L, N52D, H53T, S54G, S56N, N58G
# B16: VH4-34+CDR3-IL8_CDR1 G31D,Y32K / V1-51 IgG (antibody, part only)
# heavy: B2 VH with G31D, Y32K, S50E
# light: B6 light
# B17: VH4-34+CDR3-IL8_CDR1 Cow_CDR2 Cow / V1-47 IgG (antibody, part only; not given: V1-47 light chain, part only)
# VH: B6 heavy with I48L, E50S, N52D, H53T, S54G, S56N, N58G
# Biological target: CXCR1 (UniProt P25024)
# Assay: flow cytometry, supernatant at 5 nM IgG
# CXCR1, sequence (P25024 whole entry): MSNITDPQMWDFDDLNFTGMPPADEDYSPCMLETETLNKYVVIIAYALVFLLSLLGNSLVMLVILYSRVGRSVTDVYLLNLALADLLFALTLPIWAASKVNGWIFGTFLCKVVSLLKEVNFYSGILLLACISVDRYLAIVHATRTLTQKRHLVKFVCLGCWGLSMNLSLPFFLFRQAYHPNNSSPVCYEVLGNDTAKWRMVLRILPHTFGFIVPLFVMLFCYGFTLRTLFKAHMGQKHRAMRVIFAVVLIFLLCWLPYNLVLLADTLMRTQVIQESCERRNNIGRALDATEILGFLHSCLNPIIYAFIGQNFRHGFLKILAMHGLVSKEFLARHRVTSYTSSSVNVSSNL
row,Specific Binding (CXCR1-Cell median AFU / Parental Cell median AFU),Binder
1,2,B1
2,2,B2

# Biological target: CXCR1 (UniProt P25024)
# Assay: flow cytometry, CXCR1-U2OS / parental U2OS
row,CXCR1/Parental Ratio,Binder
1,3.6,B3
2,2.5,B4
3,2.9,B5
4,2.4,B6
5,3.3,B7
6,2.6,B8
7,2.6,B9
8,1.4,B10
9,3.1,B11
10,5.1,B12
11,1.8,B13
12,3,B14
13,3.9,B15
14,3,B16
15,4.6,B17

# Biological target: CXCR1 (UniProt P25024)
# Assay: flow cytometry, 10 nM IgG, 2 ug/ml heparin sulfate, CXCR1-U2OS / parental U2OS
row,CXCR1 specificity (CXCR1/parental ratio),Binder
1,7.2,B6
